According to publication PMC4677358:
Values belong to the substance of their own block, whether it stands above or below them.

Tests used:
[1] = biological target: RuvA (bound to Holliday junction DNA) (E. coli) (UniProt P0A809); assay: single-molecule fluorescence imaging in zero mode waveguides (counting of Cy5 photobleaching steps); 400 nM RuvA with 40 nM biotinylated Cy3-Holliday junction DNA held by streptavidin in the nanoholes, unbound washed out; 400 nM Cy5-RuvB added; 20 mM HEPES-KOH pH 8.0, 10 mM MgCl2; 25 ± 2 °C; holes with a single DNA; step counts fitted for the 42% labeling ratio; 1 mM ADP
[2] = biological target: RuvA (bound to Holliday junction DNA) (E. coli) (UniProt P0A809); assay: single-molecule fluorescence imaging in zero mode waveguides (counting of Cy5 photobleaching steps); 400 nM RuvA with 40 nM biotinylated Cy3-Holliday junction DNA held by streptavidin in the nanoholes, unbound washed out; 400 nM Cy5-RuvB added; 20 mM HEPES-KOH pH 8.0, 10 mM MgCl2; 25 ± 2 °C; holes with a single DNA; step counts fitted for the 42% labeling ratio; 1 mM ATPγS
[3] = biological target: RuvA (bound to Holliday junction DNA) (E. coli) (UniProt P0A809); assay: single-molecule fluorescence imaging in zero mode waveguides (counting of Cy5 photobleaching steps); 400 nM RuvA with 40 nM biotinylated Cy3-Holliday junction DNA held by streptavidin in the nanoholes, unbound washed out; 400 nM Cy5-RuvB added; 20 mM HEPES-KOH pH 8.0, 10 mM MgCl2; 25 ± 2 °C; holes with a single DNA; step counts fitted for the 42% labeling ratio; no nucleotide
[4] = biological target: RuvA (bound to Holliday junction DNA) (E. coli) (UniProt P0A809); assay: single-molecule fluorescence imaging in zero mode waveguides (counting of Cy5 photobleaching steps); 400 nM RuvA with 40 nM biotinylated Cy3-Holliday junction DNA held by streptavidin in the nanoholes, unbound washed out; 400 nM Cy5-RuvB added; 20 mM HEPES-KOH pH 8.0, 10 mM MgCl2; 25 ± 2 °C; holes with a single DNA; step counts fitted for the 42% labeling ratio; 0.5 mM ADP and 0.5 mM ATPγS
[5] = biological target: RuvA (bound to Holliday junction DNA) (E. coli) (UniProt P0A809)

UniProt P0A809, sequence (P0A809 whole entry): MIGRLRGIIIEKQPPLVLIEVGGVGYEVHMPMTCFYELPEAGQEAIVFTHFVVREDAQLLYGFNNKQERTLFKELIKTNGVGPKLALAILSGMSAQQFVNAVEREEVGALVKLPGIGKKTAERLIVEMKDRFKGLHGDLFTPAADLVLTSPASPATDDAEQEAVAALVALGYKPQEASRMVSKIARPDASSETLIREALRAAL
RuvB, sequence (P0A812 whole entry): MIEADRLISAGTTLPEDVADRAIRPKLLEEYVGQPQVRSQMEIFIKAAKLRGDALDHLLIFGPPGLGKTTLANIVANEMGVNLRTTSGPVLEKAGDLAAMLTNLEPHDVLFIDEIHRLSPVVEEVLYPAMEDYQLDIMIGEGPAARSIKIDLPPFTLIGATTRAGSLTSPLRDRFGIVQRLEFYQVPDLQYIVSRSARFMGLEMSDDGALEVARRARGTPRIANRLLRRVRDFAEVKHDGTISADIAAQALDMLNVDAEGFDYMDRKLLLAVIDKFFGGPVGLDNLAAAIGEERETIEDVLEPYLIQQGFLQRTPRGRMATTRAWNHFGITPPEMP

- % of Holliday junction DNA (with RuvA) that interacted with RuvB (fit, monomer model) [1]: 90%
- % of RuvA-Holliday junction DNA complexes with 0 RuvB dimers bound (fit, dimer model, Cy5 at random) [1]: 11%
- % of RuvA-Holliday junction DNA complexes with 0 RuvB dimers bound (fit, dimer model, one Cy5 per labelled dimer) [1]: 26%
- % of RuvA-Holliday junction DNA complexes with 0 RuvBs bound (fit, monomer model) [1]: 10%
- % of RuvA-Holliday junction DNA complexes with 1 RuvB dimers bound (fit, dimer model, Cy5 at random) [1]: 48%
- % of RuvA-Holliday junction DNA complexes with 1 RuvB dimers bound (fit, dimer model, one Cy5 per labelled dimer) [1]: 35%
- % of RuvA-Holliday junction DNA complexes with 1 RuvBs bound (fit, monomer model) [1]: 10%
- % of RuvA-Holliday junction DNA complexes with 2 RuvB dimers bound (fit, dimer model, Cy5 at random) [1]: 41%
- % of RuvA-Holliday junction DNA complexes with 2 RuvB dimers bound (fit, dimer model, one Cy5 per labelled dimer) [1]: 26%
- % of RuvA-Holliday junction DNA complexes with 2 RuvBs bound (fit, monomer model) [1]: 21%
- % of RuvA-Holliday junction DNA complexes with 3 RuvB dimers bound (fit, dimer model, Cy5 at random) [1]: 0%
- % of RuvA-Holliday junction DNA complexes with 3 RuvB dimers bound (fit, dimer model, one Cy5 per labelled dimer) [1]: 13%
- % of RuvA-Holliday junction DNA complexes with 3 RuvBs bound (fit, monomer model) [1]: 30%
- % of RuvA-Holliday junction DNA complexes with 4 RuvB dimers bound (fit, dimer model, Cy5 at random) [1]: 0%
- % of RuvA-Holliday junction DNA complexes with 4 RuvB dimers bound (fit, dimer model, one Cy5 per labelled dimer) [1]: 0%
- % of RuvA-Holliday junction DNA complexes with 4 RuvBs bound (fit, monomer model) [1]: 29%
- % of RuvA-Holliday junction DNA complexes with 5 RuvB dimers bound (fit, dimer model, Cy5 at random) [1]: 0%
- % of RuvA-Holliday junction DNA complexes with 5 RuvB dimers bound (fit, dimer model, one Cy5 per labelled dimer) [1]: 0%
- % of RuvA-Holliday junction DNA complexes with 5 RuvBs bound (fit, monomer model) [1]: 0%
- % of RuvA-Holliday junction DNA complexes with 6 RuvB dimers bound (fit, dimer model, Cy5 at random) [1]: 0%
- % of RuvA-Holliday junction DNA complexes with 6 RuvB dimers bound (fit, dimer model, one Cy5 per labelled dimer) [1]: 0%
- % of RuvA-Holliday junction DNA complexes with 6 RuvBs bound (fit, monomer model) [1]: 0%
- % of Holliday junction DNA (with RuvA) that interacted with RuvB (fit, monomer model) [2]: 92%
- % of RuvA-Holliday junction DNA complexes with 0 RuvB dimers bound (fit, dimer model, Cy5 at random) [2]: 11%
- % of RuvA-Holliday junction DNA complexes with 0 RuvB dimers bound (fit, dimer model, one Cy5 per labelled dimer) [2]: 23%
- % of RuvA-Holliday junction DNA complexes with 0 RuvBs bound (fit, monomer model) [2]: 8%
- % of RuvA-Holliday junction DNA complexes with 1 RuvB dimers bound (fit, dimer model, Cy5 at random) [2]: 36%
- % of RuvA-Holliday junction DNA complexes with 1 RuvB dimers bound (fit, dimer model, one Cy5 per labelled dimer) [2]: 32%
- % of RuvA-Holliday junction DNA complexes with 1 RuvBs bound (fit, monomer model) [2]: 12%
- % of RuvA-Holliday junction DNA complexes with 2 RuvB dimers bound (fit, dimer model, Cy5 at random) [2]: 53%
- % of RuvA-Holliday junction DNA complexes with 2 RuvB dimers bound (fit, dimer model, one Cy5 per labelled dimer) [2]: 27%
- % of RuvA-Holliday junction DNA complexes with 2 RuvBs bound (fit, monomer model) [2]: 18%
- % of RuvA-Holliday junction DNA complexes with 3 RuvB dimers bound (fit, dimer model, Cy5 at random) [2]: 0%
- % of RuvA-Holliday junction DNA complexes with 3 RuvB dimers bound (fit, dimer model, one Cy5 per labelled dimer) [2]: 14%
- % of RuvA-Holliday junction DNA complexes with 3 RuvBs bound (fit, monomer model) [2]: 19%
- % of RuvA-Holliday junction DNA complexes with 4 RuvB dimers bound (fit, dimer model, Cy5 at random) [2]: 0%
- % of RuvA-Holliday junction DNA complexes with 4 RuvB dimers bound (fit, dimer model, one Cy5 per labelled dimer) [2]: 4%
- % of RuvA-Holliday junction DNA complexes with 4 RuvBs bound (fit, monomer model) [2]: 31%
- % of RuvA-Holliday junction DNA complexes with 5 RuvB dimers bound (fit, dimer model, Cy5 at random) [2]: 0%
- % of RuvA-Holliday junction DNA complexes with 5 RuvB dimers bound (fit, dimer model, one Cy5 per labelled dimer) [2]: 0%
- % of RuvA-Holliday junction DNA complexes with 5 RuvBs bound (fit, monomer model) [2]: 12%
- % of RuvA-Holliday junction DNA complexes with 6 RuvB dimers bound (fit, dimer model, Cy5 at random) [2]: 0%
- % of RuvA-Holliday junction DNA complexes with 6 RuvB dimers bound (fit, dimer model, one Cy5 per labelled dimer) [2]: 0%
- % of RuvA-Holliday junction DNA complexes with 6 RuvBs bound (fit, monomer model) [2]: 0%
- % of Holliday junction DNA (with RuvA) that interacted with RuvB (fit, monomer model) [3]: 77%
- % of RuvA-Holliday junction DNA complexes with 0 RuvB dimers bound (fit, dimer model, Cy5 at random) [3]: 35%
- % of RuvA-Holliday junction DNA complexes with 0 RuvB dimers bound (fit, dimer model, one Cy5 per labelled dimer) [3]: 52%
- % of RuvA-Holliday junction DNA complexes with 0 RuvBs bound (fit, monomer model) [3]: 23%
- % of RuvA-Holliday junction DNA complexes with 1 RuvB dimers bound (fit, dimer model, Cy5 at random) [3]: 65%
- % of RuvA-Holliday junction DNA complexes with 1 RuvB dimers bound (fit, dimer model, one Cy5 per labelled dimer) [3]: 38%
- % of RuvA-Holliday junction DNA complexes with 1 RuvBs bound (fit, monomer model) [3]: 37%
- % of RuvA-Holliday junction DNA complexes with 2 RuvB dimers bound (fit, dimer model, Cy5 at random) [3]: 0%
- % of RuvA-Holliday junction DNA complexes with 2 RuvB dimers bound (fit, dimer model, one Cy5 per labelled dimer) [3]: 10%
- % of RuvA-Holliday junction DNA complexes with 2 RuvBs bound (fit, monomer model) [3]: 40%
- % of RuvA-Holliday junction DNA complexes with 3 RuvB dimers bound (fit, dimer model, Cy5 at random) [3]: 0%
- % of RuvA-Holliday junction DNA complexes with 3 RuvB dimers bound (fit, dimer model, one Cy5 per labelled dimer) [3]: 0%
- % of RuvA-Holliday junction DNA complexes with 3 RuvBs bound (fit, monomer model) [3]: 0%
- % of RuvA-Holliday junction DNA complexes with 4 RuvB dimers bound (fit, dimer model, Cy5 at random) [3]: 0%
- % of RuvA-Holliday junction DNA complexes with 4 RuvB dimers bound (fit, dimer model, one Cy5 per labelled dimer) [3]: 0%
- % of RuvA-Holliday junction DNA complexes with 4 RuvBs bound (fit, monomer model) [3]: 0%
- % of RuvA-Holliday junction DNA complexes with 5 RuvB dimers bound (fit, dimer model, Cy5 at random) [3]: 0%
- % of RuvA-Holliday junction DNA complexes with 5 RuvB dimers bound (fit, dimer model, one Cy5 per labelled dimer) [3]: 0%
- % of RuvA-Holliday junction DNA complexes with 5 RuvBs bound (fit, monomer model) [3]: 0%
- % of RuvA-Holliday junction DNA complexes with 6 RuvB dimers bound (fit, dimer model, Cy5 at random) [3]: 0%
- % of RuvA-Holliday junction DNA complexes with 6 RuvB dimers bound (fit, dimer model, one Cy5 per labelled dimer) [3]: 0%
- % of RuvA-Holliday junction DNA complexes with 6 RuvBs bound (fit, monomer model) [3]: 0%
- % of Holliday junction DNA (with RuvA) that interacted with RuvB (fit, dimer model of Table 2) [4]: 97%
- % of Holliday junction DNA (with RuvA) that interacted with RuvB (fit, monomer model) [4]: 98%
- % of RuvA-Holliday junction DNA complexes with 0 RuvB dimers bound (fit, dimer model, Cy5 at random) [4]: 3%
- % of RuvA-Holliday junction DNA complexes with 0 RuvB dimers bound (fit, dimer model, one Cy5 per labelled dimer) [4]: 14%
- % of RuvA-Holliday junction DNA complexes with 0 RuvBs bound (fit, monomer model) [4]: 2%
- % of RuvA-Holliday junction DNA complexes with 1 RuvB dimers bound (fit, dimer model, Cy5 at random) [4]: 24%
- % of RuvA-Holliday junction DNA complexes with 1 RuvB dimers bound (fit, dimer model, one Cy5 per labelled dimer) [4]: 29%
- % of RuvA-Holliday junction DNA complexes with 1 RuvBs bound (fit, monomer model) [4]: 5%
- % of RuvA-Holliday junction DNA complexes with 2 RuvB dimers bound (fit, dimer model, Cy5 at random) [4]: 70%
- % of RuvA-Holliday junction DNA complexes with 2 RuvB dimers bound (fit, dimer model, one Cy5 per labelled dimer) [4]: 33%
- % of RuvA-Holliday junction DNA complexes with 2 RuvBs bound (fit, monomer model) [4]: 8%
- % of RuvA-Holliday junction DNA complexes with 3 RuvB dimers bound (fit, dimer model, Cy5 at random) [4]: 3%
- % of RuvA-Holliday junction DNA complexes with 3 RuvB dimers bound (fit, dimer model, one Cy5 per labelled dimer) [4]: 19%
- % of RuvA-Holliday junction DNA complexes with 3 RuvBs bound (fit, monomer model) [4]: 31%
- % of RuvA-Holliday junction DNA complexes with 4 RuvB dimers bound (fit, dimer model, Cy5 at random) [4]: 0%
- % of RuvA-Holliday junction DNA complexes with 4 RuvB dimers bound (fit, dimer model, one Cy5 per labelled dimer) [4]: 4%
- % of RuvA-Holliday junction DNA complexes with 4 RuvBs bound (fit, monomer model) [4]: 37%
- % of RuvA-Holliday junction DNA complexes with 5 RuvB dimers bound (fit, dimer model, Cy5 at random) [4]: 0%
- % of RuvA-Holliday junction DNA complexes with 5 RuvB dimers bound (fit, dimer model, one Cy5 per labelled dimer) [4]: 1%
- % of RuvA-Holliday junction DNA complexes with 5 RuvBs bound (fit, monomer model) [4]: 14%
- % of RuvA-Holliday junction DNA complexes with 6 RuvB dimers bound (fit, dimer model, Cy5 at random) [4]: 0%
- % of RuvA-Holliday junction DNA complexes with 6 RuvB dimers bound (fit, dimer model, one Cy5 per labelled dimer) [4]: 0%
- % of RuvA-Holliday junction DNA complexes with 6 RuvBs bound (fit, monomer model) [4]: 3%
Substance: Cy5-labeled RuvB-S39C (from UniProt P0A812 1-336) (enzyme)

- ratio of fluorescent spots of Cy3-Holliday junction DNA to nanoholes after addition of 400 nM RuvB with 1 mM ATP and 5 min at 25 °C (about 90% before the addition); loss of spots by branch migration [5]: 16%
Substance: RuvB (from UniProt P0A812 1-336) (enzyme)
